What was measured:
[1] = Competition binding assay with CBMX, Avicel and soluble carbohydrate; set-up: species or system barley; settings: beta-glucan
Method: (§1) Affinity of CBMX for a number of soluble carbohydrates was tested in a competition assay by mixing 100 μl CBMX with both Avicel® (400 μl 50 mg/ml in 20 mM Tris, pH 7.5) and the soluble carbohydrate (dissolved in 500 μl 20 mM Tris, pH 7.5). As references, samples without CBMX or soluble carbohydrate added were used. If CBMX has affinity for the soluble carbohydrate it should be able to keep CBMX in solution which can be measured as increase in absorbance at 280 nm compared to sample without soluble carbohydrate added. After 4 hours incubation at room temperature with agitation, samples were centrifuged and absorbance at 280 nm was read using 200 μl supernatant in the well of a microtiter UV plate. Tested soluble carbohydrates were barley β-glucan (Megazyme, low viscosity), lichenan (Megazyme, Icelandic moss), CMC (carboxymethyl cellulose 7LF, Hercules, USA), Xyloglucan (Megazyme, amyloid, from tamarind seed), lupin galactan (Megazyme) and Locust bean gum (Sigma, G-0753).

[2] = as above; set-up: species or system tamarind; settings: xyloglucan
Method: as §1

[3] = Binding of CBMX to Avicel (A280 of supernatant); settings: for A280: Absorbance at 280 nm of 200 μl supernatant, absorbance of buffer and Avicel subtracted: 4 hours, room temperature, 20 mM Tris pH 7.5
Method: The carbohydrate-binding domain with affinity for Avicel® and purified as described in Example 2 (CBMX) was studied further. 50 μl purified CBMX was mixed with 500 μl 20 mM Tris, pH 7.5 containing varying amount of Avicel® (0-100 mg/ml) in an Eppendorf tube. After 4 hours incubation at room temperature with agitation, the samples were centrifuged. 200 μl supernatant was transferred to the well of a microtiter plate (Costar, UV plate) and absorbance read at 280 nm on a microtiter plate reader (SpectraMax® Plus, Molecular Devices).

[4] = Competition binding assay with CBMX and Avicel, references without soluble carbohydrate; settings: 4 hours
Method: as §1

[5] = Competition binding assay with CBMX, Avicel and soluble carbohydrate; set-up: species or system Icelandic moss; settings: lichenan
Method: as §1

[6] = as above; settings: for CBMX kept in solution by soluble carbohydrate (in words): competition with Avicel
Method: as §1

[7] = as above; set-up: species or system lupin; settings: galactan
Method: as §1

[8] = Binding of CBMX to PASC (A280 of supernatant); settings: 4 hours, room temperature; for A280: Absorbance at 280 nm of 200 μl supernatant, absorbance of buffer subtracted: 20 mM Tris pH 7.5
Method: A similar binding study was performed with PASO (Phosphoric Acid Swollen Cellulose: To 5 g Avicel® moistened with water 150 ml ice-cold 85 ortho-phosphoric acid is added. After 1 hour stirring on ice bath, 500 ml cold acetone is added. The suspension is filtered and washed, first with acetone and then with water). 50 μl purified CBMX was mixed with 500 μl 20 mM Tris, pH 7.5 containing varying amount of PASO (0-10 mg/ml) in an Eppendorf tube. Samples were incubated 4 hours at room temperature with agitation. After centrifugation, 200 μl supernatant was transferred to the well of a microtiter plate and absorbance read at 280 nm.

Affinity of CBMX for soluble carbohydrate (in words) [1]: affinity
CBMX kept in solution by soluble carbohydrate (in words) ([1]; competition with Avicel): keep almost all CBMX in solution
Affinity of CBMX for soluble carbohydrate (in words) [2]: to some extent
CBMX kept in solution by soluble carbohydrate (in words) ([2]; competition with Avicel): about half of the CBMX in solution
A280: Absorbance at 280 nm of 200 μl supernatant, absorbance of buffer and Avicel subtracted ([3]; Avicel 0.0 mg/ml): 0.0768
A280: Absorbance at 280 nm of 200 μl supernatant, absorbance of buffer and Avicel subtracted ([3]; Avicel 0.391 mg/ml): 0.0777
A280: Absorbance at 280 nm of 200 μl supernatant, absorbance of buffer and Avicel subtracted ([3]; Avicel 0.781 mg/ml): 0.0808
A280: Absorbance at 280 nm of 200 μl supernatant, absorbance of buffer and Avicel subtracted ([3]; Avicel 1.563 mg/ml): 0.0799
A280: Absorbance at 280 nm of 200 μl supernatant, absorbance of buffer and Avicel subtracted ([3]; Avicel 3.125 mg/ml): 0.0729
A280: Absorbance at 280 nm of 200 μl supernatant, absorbance of buffer and Avicel subtracted ([3]; Avicel 6.25 mg/ml): 0.0637
A280: Absorbance at 280 nm of 200 μl supernatant, absorbance of buffer and Avicel subtracted ([3]; Avicel 12.5 mg/ml): 0.0540
A280: Absorbance at 280 nm of 200 μl supernatant, absorbance of buffer and Avicel subtracted ([3]; Avicel 25 mg/ml): 0.0326
A280: Absorbance at 280 nm of 200 μl supernatant, absorbance of buffer and Avicel subtracted ([3]; Avicel 50 mg/ml): 0.0185
A280: Absorbance at 280 nm of 200 μl supernatant, absorbance of buffer and Avicel subtracted ([3]; Avicel 100 mg/ml): 0.0095
Binding of the protein to Avicel (in words) ([3]; highest concentrations of Avicel, 4 hours incubation): the large majority of the protein binds
Affinity for Avicel (in words) ([3]; summary statement): have affinity for Avicel®
Difference in A280 between samples with and without CBMX added ([4]; None - Only Avicel (20 mg/ml) and CBMX, no soluble carbohydrate): 0.018
Difference in A280 between samples with and without CBMX added ([4]; None - Only CBMX (no Avicel, no soluble carbohydrate)): 0.108
Affinity of CBMX for soluble carbohydrate (in words) ([6]; CMC): affinity
CBMX kept in solution by soluble carbohydrate (in words) ([6]; CMC): keep almost all CBMX in solution
Affinity of CBMX for soluble carbohydrate (in words) ([6]; locust bean gum): affinity
CBMX kept in solution by soluble carbohydrate (in words) ([6]; locust bean gum): keeps the majority in solution
Affinity of CBMX for soluble carbohydrate (in words) [7]: to some extent
CBMX kept in solution by soluble carbohydrate (in words) ([7]; competition with Avicel): about half of the CBMX in solution
Affinity for PASC (in words) ([8]; 0-10 mg/ml): has affinity for PASO
A280: Absorbance at 280 nm of 200 μl supernatant, absorbance of buffer subtracted ([8]; PASC 0.0 mg/ml): 0.0753
A280: Absorbance at 280 nm of 200 μl supernatant, absorbance of buffer subtracted ([8]; PASC 0.625 mg/ml): 0.0682
A280: Absorbance at 280 nm of 200 μl supernatant, absorbance of buffer subtracted ([8]; PASC 1.25 mg/ml): 0.0710
A280: Absorbance at 280 nm of 200 μl supernatant, absorbance of buffer subtracted ([8]; PASC 2.5 mg/ml): 0.0618
A280: Absorbance at 280 nm of 200 μl supernatant, absorbance of buffer subtracted ([8]; PASC 5 mg/ml): 0.0512
A280: Absorbance at 280 nm of 200 μl supernatant, absorbance of buffer subtracted ([8]; PASC 10 mg/ml): 0.0471
B1: CBMX: Carbohydrate-binding module of Pseudoplectania nigrella GH61 enzyme (positions 34-174 of SEQ ID NO:2), expressed in Aspergillus oryzae, purified on Avicel (protein, listed as Pseudoplectania nigrella)
chain: SSGTSNDKAVASSSIAAVDPVTSSVVASVQVPNFTATDVPTFTATDIPTFTATDVPIFTKKPQQPSTLLTRTRTHASVSFVAKPSAFIPKPSASTIPSKPKTPEEVNKCLDAVNACITQAQSSIGGVVNFEPCESQRALCY
Affinity of CBMX for soluble carbohydrate (in words) [5]: no affinity for lichenan could be detected
CBMX kept in solution by soluble carbohydrate (in words) ([5]; competition with Avicel): does not result in any increase in CBMX in solution

From US8846340B2, “Carbohydrate-binding modules of a new family” (Novozymes A/S, priority 2003, dated 2014)
